Reference: US20210355166A1, “[…] METHODS OF USE THEREOF” (priority 2018, published 2021)

What was measured:
[1] = target: human κ-opioid receptor (hKOPr), human recombinant KOPr expressed in CHO cells (human) (UniProt P41145); assay: competition with [3H]U69593 (2 nM), human recombinant KOPr expressed in CHO cells
[2] = target: human δ-opioid receptor (hDOPr), human recombinant DOPr expressed in CHO cells (human) (UniProt P41143); assay: competition with [3H]DADLE (0.5 nM), human recombinant DOPr expressed in CHO cells

- Ki [1]: 770 nM
- Ki [2]: 190 nM
Substance: bilorphin (H-[Dmt]-vVf-NH2; 2,6-dimethyl-L-tyrosine-D-Val-L-Val-D-Phe-NH2) (peptide)
